# In patent US20100104550A1 (ADELAIDE RESEARCH AND INNOVATION, published 2010):
# How the values were obtained:
# [1] = target: EGF receptor (EGFR) on MDA231luc cells (luciferase-expressing derivative of EGFR-positive human brea (human (human breast carcinoma cells), UniProt P00533 25-1210)); test: cell-based or functional assay
# [2] = target: EGF receptor (EGFR) on F98/EGFR rat glioma cells engineered to express 10^6 EGFR per cell (UniProt P00533 25-1210); test: cell-based or functional assay
binder,measurement,setting,value
"EGF-SubA fusion protein (Cys-tag, linker, human EGF, linker, SubA 22-347) (other) MKESCAKKFQRQHMDSGGGGSGGGGSGGGGSMGNSDSECPLSHDGYCLHDGVCMYIEALDKYACNCVVGYIGERCQYRDLKWWELRSMADIGSEKPWYFDAIGLTETTMSLTDKNTPVVVSVVDSGVAFIGGLSDSEFAKFSFTQDGSPFPVKKSEALYIHGTAMASLIASRYGIYGVYPHALISSRRVIPDGVQDSWIRAIESIMSNVFLAPGEEKIINISGGQKGVASASVWTELLSRMGRNNDRLIVAAVGNDGADIRKLSAQQRIWPAAYHPVSSVNKKQDPVIRVAALAQYRKGETPVLHGGGITGSRFGNNWVDIAAPGQNITFLRPDAKTGTGSGTSEATAIVSGVLAAMTSCNPRATATELKRTLLESADKYPSLVDKVTEGRVLNAEKAISMFCKKNYIPVRQGRMSEEL","IC50 of cytotoxicity toward MDA-231luc cells (72 h, Cell Proliferation Assay)",[1],~0.05 nM
same,"IC50 of cytotoxicity toward F98/EGFR cells (72 h, Cell Proliferation Assay)",[2],0.005 nM
same,"fold difference in cytotoxicity, F98/EGFR cells against parental F-98 cells",[2],500 fold
